The values that follow come from paper PMC12377726 (Proceedings of the National Academy of Sciences of the …, 2025).

B1: G001_gp1_V07_VRC01c_102 (antibody, V domains shown)
VH: QVQLVQSGAEVKKPGASVKVSCKASGYTFTGYYMHWVRQAPGQGLEWMGWINPISGGTNYAQEFQDWVTMTRDTSISTAYMELSRLRSDDTAVYYCARHDSSENAFDIWGQGTMVTVSS
VL: DIQMTQSPSTLSASVGDRVTITCRASQSTSRWLAWYQQKPGKAPKLLIYKASSLESGVPSRFSGSGSGTEFTLTISSLQPDDFATYYCQQYTSFGQGTKLEIK
B2: G001_gp1_V07_VRC01c_111 (antibody, V domains shown)
VH: QVQLVQSGAEVKKPGASVKVSCKASGYTFTGYYMHWVRQAPGQGLEWMGWIYPNSGGTNYVQEFQGRVTMTRDTSISTAYMELSRLRSDDTAVYYCATDNYTTSSMLLRTWGQGTLVTVSS
VL: DIQMTQSPSTLSASVGDRVTITCRASQSISSWLAWYQQKPGKAPKLLIYKASSLESGVPSRFSGSGSGTEFTLTISSLQPDDFATYYCQQYETFGQGTKVEIK
B3: G001_gp1_V07_VRC01c_2021-0033 (antibody, V domains shown)
VH: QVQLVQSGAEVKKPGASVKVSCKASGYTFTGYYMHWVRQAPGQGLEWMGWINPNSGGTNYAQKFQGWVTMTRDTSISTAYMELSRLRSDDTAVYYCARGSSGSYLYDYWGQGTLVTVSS
VL: DIQMTQSPSTLSASVGDRVTITCRASQSISSWLAWYQQKPGKAPKLLIYKASSLESGVPSRFSGSGSGTEFTLTISSLQPDDFATYYCQQYETFGQGTKVEIK
B4: G001_gp1_V07_VRC01c_2021-0034 (antibody, V domains shown)
VH: QVQLVQSGAEVKKPGASVKVSCKASGYTFSGYYMHWVRQAPGQGLEWMGWINPNSGGTNYAQKFQGGVTMTRDTSISTAYMELSSLRSDDTAVYYCAREGGLGATAFDYWGQGTLVSVSS
VL: DIQMTQSPSTLSASVGDRVTITCRASQSISSWLAWYQQKPGKAPKLLIYKASSLESGVPSRFSGSGSGTEFTLTISSLQPDDFATYYCQQYETFGQGTKLEIK
B5: G001_gp1_V06_VRC01c_87 (antibody, V domains shown)
VH: not shown
VL: EIVMTQSPATLSVSPGERATLSCRASQSVSSNLAWYQQKPGQAPRLLIYGASTRATGIPARFSGSGSGTEFTLTISSLQSEDFAVYYCQQYETFGQGTKVEIK
B6: G001_gp1_V07_VRC01c_2021-0032 (antibody, V domains shown)
VH: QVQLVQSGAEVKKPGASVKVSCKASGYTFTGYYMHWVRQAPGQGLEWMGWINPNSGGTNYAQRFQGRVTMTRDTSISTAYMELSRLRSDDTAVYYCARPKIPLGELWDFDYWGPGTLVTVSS
VL: EIVMTQSPATLSVSPGERATLSCRASQSVSSNLAWYQQKPGQAPRLLIYGASTRATGIPARFSGSGSGTEFTLTISSLQSEDFAVYYCQQYEFFGPGTKVDIK
B7: G001_gp1_V07_VRC01c_105 (antibody, V domains shown)
VH: not shown
VL: EIVMTQSPATLSVSPGERATLSCRASQSVSSNLAWYQQKPGQAPRLLIYGASTRATGIPARFSGSGSGTEFTLTISSLQSEDFAVYYCQQYNIFGQGTKLEIK
B8: G001_gp1_V06_VRC01c_88 (antibody, V domains shown)
VH: QVQLVQSGAEVKKPGASVKVSCKASGYTFTGYYMHWVRQAPGQGLEWMGWINPNSGGTNYAQKFQGRVTMTRDTSISTAYMELRGLRSDDTAVYYCASLYYYVPGGWGQGTLVTVSS
VL: EIVLTQSPGTLSLSPGERATLSCRASQSVSNSYLAWYQQKPGQAPRLLIYGASSRATGIPDRFSGSGSGTDFTLTISRLEPEDFAVYYCQQYVTFGPGTKVDIK
B9: G001_gp1_V07_VRC01c_110 (antibody, V domains shown)
VH: QVQLVQSGAEVKKPGASVRVSCKASGYTFTDYYMHWVRQAPGQGLEWMGWINPNSGGTNYAQKFQGRVTMTRDTSISTAYMELSGLRSDDTAVYYCARITGYYDSSGYYCLDHWGQGTLVTVAS
VL: EIVLTQSPGTLSLSPGERATLSCRASQSGRSSYLAWYQQKPGQAPRLLIYGASSRATGIPDRFSGSGSGTDFTLTISRLEPEDFAVYYCHQYAAFGQGTKVEIK
B10: G001_gp1_V07_VRC01c_109 (antibody, V domains shown)
VH: QVQLVQSGAEVKKPGASVKVSCKTSGYTFTDYYIHWVRQAPGQGLEWMGWINPNSGGTNYAQKFQGGVTMTRDTSISTAYMDLNRLTSDDTAVYYCTRLPPNRAAPGWWFDPWGQGTLVTVSS
VL: EIVLTQSPGTLSLSPGERATLSCRASQSVSSSYLAWYQQKPGQAPRLLIYGASNRATGIPDRFSGSGSGTDFTLTISRLEPEDFAVYYCQQYGAFGQGTKVEIK
B11: G001_gp1_V07_VRC01c_101 (antibody, V domains shown)
VH: QVQLVQSGAEVKKPGASVKVSCKASRDTFTGYYMHWVRQAPGQGLEWMGWINPNSGGTNYAQKFQDGVTLTRDTSISTAYMELSRLRSDDTAVYYCARTEYYSQRGWAFDIWGQGTMVTVSS
VL: DIQMTQSPSSLSASVGDRVTITCQASQDISNHLNWYQQKPGKAPKLLIYDASNLETGVPLRFSGSGSGTDFTFTISSLQPEDIATYYCQQYDNFGPGTKVDIK
B12: G001_gp1_V07_VRC01c_2021-0031 (antibody, V domains shown)
VH: not shown
VL: DIQMTQSPSSLSASVGDRVTITCQASQDISEYLNWYQQKPGKAPKLLIYDASNLETGVPSRFSGSGSGTDFTFTISSLQPEDVATYYCQQYEFFGGGTKVEIK
B13: G001_gp1_V07_VRC01c_2021-0036 (antibody, V domains shown)
VH: QVQLVQSGAEVKKPGASVKVSCKASGYTFTGYYMHWVRQAPGQGLEWMGWINPNSGGTNYAQKFQDWVTMTRDTSISTAYMEVSRLKSDDTAVYYCARGRAGTTAWWYFDLWGRGALVTVSS
VL: DIQMTQSPSSLSASVGDRVTITCQASQDISNYLNWYQQKPGKAPKLLIYDASNLETGVPSRFSGSGSGTDFTFTISSLQPEDVATYYCQQYDSFGPGTKVDIK
B14: G001_gp1_V07_VRC01c_2021-0037 (antibody, V domains shown)
VH: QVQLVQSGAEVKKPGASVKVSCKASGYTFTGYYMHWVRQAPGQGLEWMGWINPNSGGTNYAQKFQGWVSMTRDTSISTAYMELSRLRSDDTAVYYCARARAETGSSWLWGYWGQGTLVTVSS
VL: DIQMTQSPSSLSASVGDRVTITCQASQDISNYLNWYQQKPGKAPKLLIYDASNLETGVPSRFSGSGSGTDFTFTISSLQPEDIATYYCQEYDTFGGGTKVEIK
B15: G001_gp1_V07_VRC01c_2021-0038 (antibody, V domains shown)
VH: not shown
VL: DIQMTQSPSSLSASVGDRVTITCQASQGISNYLNWYQLKPGKAPKLLISDASNLETGVPSRFSGSGSGTDFTFTISSLQPEDIATYYCQQYDYFGPGTTVDIK
B16: G001_gp1_V07_VRC01c_107 (antibody, V domains shown)
VH: QVQLVQSGAEVKKPGASVKVSCKASGYTFTGYYMHWVRQAPGQGLEWMGWINPSSGGTNYAQKFQGRVTMTRDTSISTAYMELDWLRSDDTAVYYCARVRGATTFDYWGQGTLVTVSS
VL: DIQMTQSPSSLSASVGDRVTITCQASQDISNYLHWYQQKPGKAPKLLIYDASKLETGVPSRFSGSGSGTDFTFTISSLQPEDIATYYCQQYNTFGQGTKLQIK
B17: G001_gp1_V06_VRC01c_86 (antibody, V domains shown)
VH: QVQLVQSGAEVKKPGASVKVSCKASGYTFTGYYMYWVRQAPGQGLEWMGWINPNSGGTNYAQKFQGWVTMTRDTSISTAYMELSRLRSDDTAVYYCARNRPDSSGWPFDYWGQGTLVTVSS
VL: QSALTQPPSASGSPGQSVTISCTGTSSDVGGYNYVSWYQQHPGKAPKLMIYEVSKRPSGVPDRFSGSKSGNTASLTVSGLQPEDEADYYCSSYEVFGTGTRVTVL
B18: G001_gp1_V07_VRC01c_2021-0035 (antibody, V domains shown)
VH: QVQLVQSGAEVKKPGASVKVSCKASGYTFTDYYLHWVRQAPGQGLEWMGWINPNSGGTNYAQKFQDWVTMTRDTSISTAYMELSRLRSDDTAVYYCARDGLAARWDFDSWGQGTLVTVSS
VL: SYELTQPPSVSVAPGQTARITCGGNNIGSKSVHWYQQKPVQAPVLVVYDDGDRPSGIPERFSGSNSGNTATLTISRVEAGDEADYYCQVLEVFGTGTKVTVL

The target of the assay is eOD-GT8 (engineered outer domain germline-targeting version 8), monomer (HIV-1 gp120 engineered outer domain, …).
For the molecule B1, the binding result is “binds”.

Consider B2, for which the binding result is “binds”.

On to B3, for which the binding result was “binds”.

Consider B4, for which the binding result was “binds”.

Consider B5, for which the binding result is listed as “binds”.

Consider B6, for which the binding result was “binds”.

As for B7, the binding result is reported as “binds”.

B8: the binding result is “binds”.

Take B9: the binding result is “binds”.

For the molecule B10, the binding result is given as “binds”.

In the case of B11, the binding result is on record as “binds”.

B12: the binding result is listed as “binds”.

With B13, the binding result is reported as “binds”.

In the case of B14, the binding result is listed as “binds”.

As to B15, the binding result is “binds”.

Regarding B16, the binding result is recorded as “binds”.

In the case of B17, the binding result was “binds”.

For B18, the binding result is reported as “binds”.
